Source: US20170044260A1 (Innovent, published 2017)
Numbering of substitutions follows the chain as printed. Numbers in names are those of the source. One block for each molecule: values may come before it.

Legend:
[1] = target: cynoPD-1_Fc (cyno) (UniProt B0LAJ3); assay: bio-layer interferometry (ForteBio), monovalent: Fab in solution, cynoPD-1_Fc on sensor tip
[2] = target: T1, human PD-1 on cells (human, UniProt Q15116 25-288); assay: flow cytometry blocking: CHO cells with human PD-1, 100 nM antibody, then PD-L2-FITC (competitor); remaining PD-L2-FITC signal
T1 sequence (Q15116 25-288 limits assumed): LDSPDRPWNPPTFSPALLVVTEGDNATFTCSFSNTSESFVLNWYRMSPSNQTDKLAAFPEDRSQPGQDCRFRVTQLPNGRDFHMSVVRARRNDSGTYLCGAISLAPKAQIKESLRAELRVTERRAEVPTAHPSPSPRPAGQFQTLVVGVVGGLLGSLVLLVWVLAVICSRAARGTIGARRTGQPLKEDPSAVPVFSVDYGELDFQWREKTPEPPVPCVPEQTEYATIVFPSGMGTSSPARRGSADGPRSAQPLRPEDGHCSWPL

[3] = target: cynoPD-1_Fc (cyno, UniProt B0LAJ3 25-170); assay: bio-layer interferometry (ForteBio), monovalent: Fab in solution, cynoPD-1_Fc on sensor tip
Chain of cynoPD-1_Fc (B0LAJ3 entry or part of it limits assumed): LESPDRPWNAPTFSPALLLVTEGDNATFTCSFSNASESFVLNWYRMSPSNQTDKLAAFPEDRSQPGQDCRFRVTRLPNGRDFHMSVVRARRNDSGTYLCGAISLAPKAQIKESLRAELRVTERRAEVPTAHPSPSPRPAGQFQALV

[4] = target: T1, human PD-1 on cells; assay: cell-based or functional assay
[5] = target: T1, human PD-1 on cells; assay: cell-based or functional assay; remark: listed apart in the source
[6] = target: T1, human PD-1 on cells; assay: flow cytometry on CHO cells with human PD-1, PE-labelled secondary antibody
Protocol: Cells are then washed 3×, and are incubated with a secondary antibody (PE-labelled, at final concentration of 5 μg/ml) in PBS 1% BSA for 30 min on ice (protected from light). Cells are washed 3× and analyzed via flow cytometry. Flow cytometry is performed on an Accuri C6 system (BD Biosciences) and MFIs are calculated on the C6 software. EC50s are calculated on Graphpad software.

[7] = target: T2, hPD-1_Fc (human, UniProt Q15116 25-167, limits assumed); assay: bio-layer interferometry, PD-1_Fc on the sensor tip; reference nivolumab and pembrolizumab
T2 construct: also called human PD-1_Fc; not shown: Fc part
T2 sequence (Q15116 25-167 limits assumed): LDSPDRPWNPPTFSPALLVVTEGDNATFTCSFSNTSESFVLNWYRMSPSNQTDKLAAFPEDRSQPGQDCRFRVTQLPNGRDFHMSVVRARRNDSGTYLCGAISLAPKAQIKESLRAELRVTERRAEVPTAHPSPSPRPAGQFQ

[8] = target: T2, hPD-1_Fc; assay: bio-layer interferometry (ForteBio), monovalent: Fab in solution, hPD-1_Fc on sensor tip
[9] = target: T3, hPD-1_HIS (human, UniProt Q15116 25-167, limits assumed); assay: bio-layer interferometry (ForteBio), monovalent: hPD-1_HIS in solution, IgG on sensor tip
T3 construct: not shown: His tag
T3 sequence (Q15116 25-167 limits assumed): as above
Protocol: Briefly, ForteBio affinity measurements are performed by loading IgGs online onto AHQ sensors. Sensors are equilibrated off-line in assay buffer for 30 min and then monitored on-line for 60 seconds for baseline establishment. Sensors with loaded IgGs are exposed to 100 nM antigen for 5 min, afterwards they are transferred to assay buffer for 5 min for off-rate measurement. Kinetics are analyzed using the 1:1 binding model.

[10] = target: T4, b-PD-1 monomer (human, UniProt Q15116 25-167, limits assumed, biotinylated (b-); site not stated); assay: MSD solution equilibrium titration, monovalent KD against human PD-1; monovalent KD, IgG1 format
T4 construct: also called human PD-1; antigen of the MSD assay
T4 sequence (Q15116 25-167 limits assumed): as above
Protocol: (§1) Equilibrium affinity measurements are performed as previously described (Estep, P., et al., MAbs, 2013. 5(2): p. 270-8). […] Antibodies diluted at 20 nM in PBS are coated onto standard bind MSD-ECL plates overnight at 4° C. or at room temperature for 30 min. Plates are blocked with BSA for 30 min whilst shaking at 700 rpm. Plates are then washed 3× with wash buffer (PBSF+0.05% Tween 20). SET samples are applied and incubated on the plates for 150 s with shaking at 700 rpm followed by one wash. Antigen captured on a plate is detected with 250 ng/mL sulfotag-labeled streptavidin in PBSF by incubation on the plate for 3 min. The plates are washed three times with wash buffer and are then read on the MSD Sector Imager 2400 instrument using 1× Read Buffer T with surfactant. The percent free antigen is plotted as a function of titrated antibody in Prism and fit to a quadratic equation to extract the KD. To improve throughput, liquid handling robots are used throughout MSD-SET experiments, including for SET sample preparation.

[11] = target: T3, hPD-1_HIS; assay: bio-layer interferometry, antibody on the sensor tip; reference nivolumab and pembrolizumab
[12] = target: T5, human PD-1 (antigen of the avid KD measurement by MSD) (human, UniProt Q15116 25-167, limits assumed); assay: MSD solution equilibrium titration, avid KD against human PD-1; avid KD, IgG1 format
T5 sequence (Q15116 25-167 limits assumed): as above
Protocol: as §1

[13] = target: T6, human PD-1-Fc (R&D Systems) (human, UniProt Q15116 25-167); assay: SPR (Biacore T200), human PD-1-Fc immobilized, antibody stored 4 weeks at 4° C. as analyte, 37° C.
T6 construct: not shown: Fc part of the bought fusion protein; not described
T6 sequence (Q15116 25-167 limits assumed): as above
Protocol: (§2) All sample analytes are run in 3-fold series dilutions from their starting concentration (90 nM), 8 total dilutions with one duplicate at a middle concentration and a zero. The analysis is performed at 37° C. The contact time for each sample is 180 sec at 30 μl/min. The dissociation time: 300 seconds for 5 lower concentrations and 1200 (Fab), or 2400 (T=0) or 3000 (4 weeks 4° C., 25° C., 40° C.) seconds for 3 higher concentrations. The immobilized surface is regenerated for 6-8 seconds with 0.4% SDS at 30 ul/min, and then stabilized for 5 seconds. Binding kinetics are analyzed using the Biacore T200 Evaluation software (Version 3.0). Data are referenced to a blank flow cell, and the data are fit to a 1:1 binding model.

[14] = target: T6, human PD-1-Fc (R&D Systems); assay: SPR (Biacore T200), human PD-1-Fc immobilized, antibody stored 4 weeks at 40° C. as analyte, 37° C.
Protocol: as §2

[15] = target: T7, biotinylated PD-1-Fc fusion protein (human, UniProt Q15116 25-170, limits assumed, biotinylated; site not stated); assay: ELISA blocking: antibody mixed with biotinylated PD-1-Fc, plate coated with PD-L2-Fc (competitor)
T7 construct: also called human PD-1; not shown: Fc part; not described
T7 sequence (Q15116 25-170 limits assumed): as the sequence (B0LAJ3 entry or part of it limits assumed) above, with E2D, A10P, L19V, A35T, R75Q, A144T counted along it

[16] = target: T7, biotinylated PD-1-Fc fusion protein; assay: ELISA blocking: antibody mixed with biotinylated PD-1-Fc, plate coated with PD-L1-Fc (competitor)
[17] = target: T6, human PD-1-Fc (R&D Systems); assay: SPR (Biacore T200), human PD-1-Fc immobilized, antibody stored 4 weeks at 25° C. as analyte, 37° C.
Protocol: as §2

[18] = target: T6, human PD-1-Fc (R&D Systems); assay: SPR (Biacore T200), human PD-1-Fc immobilized, antibody as analyte, 37° C.
Protocol: as §2

[19] = target: T5, human PD-1 (antigen of the avid KD …); assay: MSD solution equilibrium titration, avid KD against human PD-1
Protocol: as §1

[20] = target: T4, b-PD-1 monomer; assay: MSD solution equilibrium titration, monovalent KD against human PD-1
Protocol: as §1

Chain of cynoPD-1_Fc (cyno) (B0LAJ3 entry or part of it limits assumed): as the sequence (B0LAJ3 entry or part of it limits assumed) above

- Kd [1]: 0.47 nM
Molecule: Fab of Pembrolizumab in IgG1 format

- MFI (PD-L2-FITC) [2]: 183000 MFI
Molecule: control IgG (antibody)

- Kd [3]: 1.2 nM
Molecule: Fab of Nivolumab in IgG1 format

- IL-2 secretion fold change vs. IgG control, 0.01 nM IgG (mixed lymphocyte reaction) [4]: 1.36 fold
- IL-2 secretion fold change vs. IgG control, 0.1 nM IgG (mixed lymphocyte reaction) [4]: 1.91 fold
- IL-2 secretion fold change vs. IgG control, 1 nM IgG (mixed lymphocyte reaction) [4]: 3.12 fold
- IL-2 secretion fold change vs. IgG control, 10 nM IgG (mixed lymphocyte reaction) [4]: 2.62 fold
- IL-2 secretion fold change vs. IgG control, 100 nM IgG (mixed lymphocyte reaction) [4]: 2.45 fold
- IFN-γ secretion fold change vs. IgG control, 0.01 nM IgG (mixed lymphocyte reaction) [5]: 1.17 fold
- IFN-γ secretion fold change vs. IgG control, 0.1 nM IgG (mixed lymphocyte reaction) [5]: 1.91 fold
- IFN-γ secretion fold change vs. IgG control, 1 nM IgG (mixed lymphocyte reaction) [5]: 2.48 fold
- IFN-γ secretion fold change vs. IgG control, 10 nM IgG (mixed lymphocyte reaction) [5]: 2.04 fold
- IFN-γ secretion fold change vs. IgG control, 100 nM IgG (mixed lymphocyte reaction) [5]: 2.07 fold
- EC50 [6]: 1.76 nM
B1: Antibody G (S228P IgG4) (antibody, V domains shown)
VH: QVQLVQSGAEVKKPGSSVRVSCKASGGTLSSYAISWVRQAPGQGLEWMGLIIPMFGAAGYAQRFQGRVTITADESASTAYMELSSLRSEDTAVYYCARAEHSSTGTFDYWGQGTLVTVSS
VL: DIQMTQSPSSVSASVGDRVTITCRASQGISSWLAWYQQKPGKAPKLLISAASSLQSGVPSRFSGSGSGTDFTLTISSLQPEDFATYYCQQANHLPFTFGGGTKVEIKR

- fold lower KD than nivolumab and pembrolizumab [7]: 3 fold
- Kd [8]: 0.56 nM
- Kd [3]: 0.67 nM
B2: Fab of Antibody D in IgG1 format (Fab, V domains shown)
VH: B1 VH with R19K, L29F, G56D, A57T, R63K, T69A, A72V, A76T
VL: DIQMTQSPSSVSASVGDRVTITCRASQGISSWLAWYQQKPGKAPKLLISAASSLQSGVPSRFSGSGSGTDFTLTISSLQPEDFATYYCQQANHLPFTFGGGTKVEIK
notes: also called Fab in solution (row Antibody D in IgG1 format)

- Kd [9]: 0.31 nM
- Kd [10]: 0.012 nM
- fold lower KD than nivolumab and pembrolizumab [11]: 6 fold
- Kd [12]: 0.0009 nM
B3: Antibody D in IgG1 format (antibody, V domains shown)
VH: B1 VH with R19K, L29F, G56D, A57T, R63K, T69A, A72V, A76T
VL: B2 VL
notes: IgG1 format, expressed in yeast; also called Antibody D in an IgG1 format and expressed in yeast

- Kd [13]: 0.103 nM
- koff [13]: 3.86e-05 s⁻¹
- kon [13]: 377000 M⁻¹ s⁻¹
- IL-2 secretion fold change vs. IgG control, 0.01 nM IgG (mixed lymphocyte reaction) [4]: 1.25 fold
- IL-2 secretion fold change vs. IgG control, 0.1 nM IgG (mixed lymphocyte reaction) [4]: 1.64 fold
- IL-2 secretion fold change vs. IgG control, 1 nM IgG (mixed lymphocyte reaction) [4]: 2.45 fold
- IL-2 secretion fold change vs. IgG control, 10 nM IgG (mixed lymphocyte reaction) [4]: 2.63 fold
- IL-2 secretion fold change vs. IgG control, 100 nM IgG (mixed lymphocyte reaction) [4]: 3.08 fold
- Kd [14]: 0.118 nM
- koff [14]: 4.22e-05 s⁻¹
- kon [14]: 358000 M⁻¹ s⁻¹
- IFN-γ secretion fold change vs. IgG control, 0.01 nM IgG (mixed lymphocyte reaction) [5]: 1.32 fold
- IFN-γ secretion fold change vs. IgG control, 0.1 nM IgG (mixed lymphocyte reaction) [5]: 1.94 fold
- IFN-γ secretion fold change vs. IgG control, 1 nM IgG (mixed lymphocyte reaction) [5]: 2.26 fold
- IFN-γ secretion fold change vs. IgG control, 10 nM IgG (mixed lymphocyte reaction) [5]: 1.99 fold
- IFN-γ secretion fold change vs. IgG control, 100 nM IgG (mixed lymphocyte reaction) [5]: 1.72 fold
- IC50 [15]: 0.34 nM
- EC50 [6]: 0.978 nM
- IC50 [16]: 0.3 nM
- Kd [17]: 0.102 nM
- koff [17]: 3.6e-05 s⁻¹
- kon [17]: 354000 M⁻¹ s⁻¹
- Kd [18]: 0.104 nM
- koff [18]: 2.98e-05 s⁻¹
- kon [18]: 286000 M⁻¹ s⁻¹
B4: Antibody D (S228P IgG4) (antibody, V domains shown)
VH: B1 VH with R19K, L29F, G56D, A57T, R63K, T69A, A72V, A76T
VL: B1 VL

- fold lower KD than nivolumab and pembrolizumab [7]: 4 fold
- Kd [8]: 0.49 nM
- Kd [3]: 0.59 nM
B5: Fab of Antibody G in IgG1 format (Fab, V domains shown)
VH: B1 VH
VL: B2 VL
notes: also called Fab in solution (row Antibody G in IgG1 format)

- Kd [9]: 0.44 nM
- fold lower KD than nivolumab and pembrolizumab [11]: 4 fold
- Kd [19]: 0.001 nM
- Kd [20]: 0.014 nM
B6: Antibody G in IgG1 format (antibody, V domains shown)
VH: B1 VH
VL: B2 VL
notes: IgG1 format, expressed in yeast; also called Antibody G in an IgG1 format and expressed in yeast
